From US12404345B2, “Humanized antibodies against iRHOM2” (SCIRHOM GMBH, priority 2021, dated 2025)

Target: T1, rhesus monkey iRhom2 (Macaca mulatta, UniProt F6Y4X6)
T1 construct: pMSCV-rhesus-iR2-FL-WT-T7 encoding rhesus monkey iRhom2 full length wild type; expressed in transfected cells; host or cells: immortalized iRhom1/2-/- DKO mouse embryonic fibroblasts, pMSCV retroviral infection
T1 sequence (F6Y4X6 1-827): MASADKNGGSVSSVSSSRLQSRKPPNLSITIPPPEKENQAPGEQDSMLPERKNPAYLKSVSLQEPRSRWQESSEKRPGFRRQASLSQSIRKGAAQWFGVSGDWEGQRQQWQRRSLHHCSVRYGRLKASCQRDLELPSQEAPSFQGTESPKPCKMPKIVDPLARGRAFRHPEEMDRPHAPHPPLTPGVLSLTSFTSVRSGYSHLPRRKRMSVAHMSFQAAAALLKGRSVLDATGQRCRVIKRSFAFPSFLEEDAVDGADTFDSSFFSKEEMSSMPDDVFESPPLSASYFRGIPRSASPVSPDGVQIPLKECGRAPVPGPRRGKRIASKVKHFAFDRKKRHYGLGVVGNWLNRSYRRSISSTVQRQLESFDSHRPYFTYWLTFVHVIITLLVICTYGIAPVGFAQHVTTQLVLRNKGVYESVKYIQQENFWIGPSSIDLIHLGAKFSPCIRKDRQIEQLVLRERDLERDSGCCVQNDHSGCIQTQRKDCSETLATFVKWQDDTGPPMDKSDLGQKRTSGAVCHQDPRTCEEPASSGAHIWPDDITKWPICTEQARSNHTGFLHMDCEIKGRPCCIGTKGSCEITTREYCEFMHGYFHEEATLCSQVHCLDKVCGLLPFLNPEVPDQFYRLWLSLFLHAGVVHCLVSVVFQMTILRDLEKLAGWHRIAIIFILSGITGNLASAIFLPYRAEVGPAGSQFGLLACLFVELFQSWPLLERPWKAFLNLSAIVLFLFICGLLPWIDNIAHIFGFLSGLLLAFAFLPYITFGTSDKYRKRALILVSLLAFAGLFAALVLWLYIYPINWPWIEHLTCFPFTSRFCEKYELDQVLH
Assay: FACS cross-reactivity on MEF-DKO-Rhesus-iR2-FL-WT-T7 cells
Type: binding
Details: antibody at 3 μg/ml
Description: Next, iRhom1/2−/− DKO MEFs stably expressing a tagged form of rhesus monkey, cynomolgus monkey, dog or rabbit iRhom2 were generated in order to determine cross-reactivity of the antibodies of the invention with the respective orthologue of iRhom2. iRhom1/2−/− DKO MEFs stably expressing a tagged form of rhesus monkey, cynomolgus monkey, dog or rabbit iRhom1 were generated to confirm specificity for iRhom2 versus iRhom1 of these species.
In brief, on day 1, Phoenix-ECO cells (American Type Culture Collection, USA) were seeded on 6-well tissue culture plates (Greiner, Germany) in standard growth medium at 8×10^5 cells per well and kept overnight at 37° C., 5% CO2. On day 2, the medium was replaced by fresh medium supplemented with chloroquine (Sigma-Aldrich, USA) at a final concentration of 25 μM. Applying the calcium phosphate method, cells were transfected with 2 μg/ml of pMSCV (Clontech, USA) empty vector, pMSCV-rhesus-iR2-FL-WT-T7 encoding rhesus monkey iRhom2 full length wild type C-terminally tagged with 3 consecutive copies of the T7 epitope, pMSCV-cyno-iR2-FL-WT-T7 encoding cynomolgus monkey iRhom2 full length wild type C-terminally tagged with 3 consecutive copies of the T7 epitope, pMSCV-dog-iR2-FL-WT-T7 encoding dog iRhom2 full length wild type C-terminally tagged with 3 consecutive copies of the T7 epitope or pMSCV-rabbit-iR2-FL-WT-T7 encoding rabbit iRhom2 full length wild type C-terminally tagged with 3 consecutive copies of the T7 epitope, respectively, and were kept at 37° C., 5% CO2. After 7 hours, the transfections were stopped by replacing cell supernatants with standard growth medium lacking chloroquine, and cells were incubated at 37° C., 5% CO2 to allow virus production overnight. In parallel, immortalized iRhom1/2−/− DKO MEFs as target cells for retroviral infection were seeded on 6-well tissue culture plates (Greiner, Germany) in standard growth medium at 1×10^5 cells per well and were also kept overnight at 37° C., 5% CO2. On day 3, the supernatants of Phoenix-ECO cells releasing pMSCV, pMSCV-rhesus-iR2-FL-WT-T7, pMSCV-cyno-iR2-FL-WT-T7, pMSCV-dog-iR2-FL-WT-T7 or pMSCV-rabbit-iR2-FL-WT-T7 ecotrophic virus, respectively were collected, filtered with 0.45 μm CA filters, and supplemented with 4 μg/ml of polybrene (Sigma-Aldrich, USA). Upon removal of medium from the immortalized iRhom1/2−/− DKO MEFs, the virus containing supernatants were added to the target cells for 4 hours at 37° C., 5% CO2 for first infection. Simultaneously, Phoenix-ECO cells were re-incubated with fresh medium, which, after another 4 hours, was filtered and used for the second infection of the respective target cell populations, again in the presence of 4 μg/ml of polybrene. Likewise, a third, but overnight infection cycle was performed. On day 4, virus containing cell supernatants were replaced by fresh standard growth medium. From day 5 onwards, cells were grown in the presence of 2 mg/ml of geneticin (G418, Thermo Fisher Scientific, USA) for the selection of immortalized MEF-DKO-EV control cells stably infected with pMSCV empty vector, pMSCV-rhesus-iR2-FL-WT-T7 cells stably expressing rhesus monkey iRhom2 full length wild type C-terminally tagged with 3 consecutive copies of the T7 epitope, pMSCV-cyno-iR2-FL-WT-T7 cells stably expressing cynomolgus monkey iRhom2 full length wild type C-terminally tagged with 3 consecutive copies of the T7 epitope, pMSCV-dog-iR2-FL-WT-T7 cells stably expressing dog iRhom2 full length wild type C-terminally tagged with 3 consecutive copies of the T7 epitope or pMSCV-rabbit-iR2-FL-WT-T7 cells stably expressing rabbit iRhom2 full length wild type C-terminally tagged with 3 consecutive copies of the T7 epitope, respectively. Upon propagation, cells were stocked for future usage. In parallel, iRhom1/2−/− DKO MEFs stably expressing a tagged form of rhesus monkey, cynomolgus monkey, dog or rabbit iRhom1 were generated in an analogous manner. […]

| Molecule | binding to rhesus monkey iRhom2 on MEF-DKO-Rhesus-iR2-FL-WT-T7 cells |
| --- | --- |
| 16-B-03: humanized antibody binding human iRhom2; HCVD SEQ ID NO 1, LCVD SEQ ID NO 5 (antibody, V domains shown, antibody sequences) VH: QVTLRESGPALVKPTQTLTLTCTFSGFSLSTFALGVGWIRQPPGKALEWLAHIWWDDDKYYNPALKSRLTISKDTSKNQVVLTITNMDPVDTATYYCARITTYYYGMDYWGQGTLVTVSS VL: EIVMTQSPDFQSVTPKEKVTITCRASQSIGNHLHWYQQKPDASPKLLIKYASQSISGVPSRFSGSGSGTDFTLTINSLEAEDAATYFCQQSYQWPLTFGQGTKLEIK | Strong binding |
| 16-B-07: humanized antibody binding human iRhom2; HCVD SEQ ID NO 17, LCVD SEQ ID NO 21 (antibody, V domains shown, antibody sequences) VH: QVTLRESGPALVKPTQTLTLTCTFSGFSLSTFALGVGWIRQPPGKALEWLAHIWWDEDKYYNPALKSRLTISKDTSKNQVVLTITNMDPVDTATYYCARITTYYYGMDYWGQGTLVTVSS VL: EIVMTQSPDFQSVTPKEKVTITCRASQSIGNHLHWYQQKPDASPKLLIKYASQSISGVPSRFSGSGSGTDFTLTINSLEAEDAATYFCQQSYQWPLTFGQGTKLEIK | recognize rhesus monkey iRhom2 |
| 16-B-05: humanized antibody binding human iRhom2; HCVD SEQ ID NO 9, LCVD SEQ ID NO 13 (antibody, V domains shown, antibody sequences) VH: QVTLRESGPALVKPTQTLTLTCTFSGFSLSTFALGVGWIRQPPGKALEWLAHIWWDEDKYYNPALKSRLTISKDTSKNQVVLTITNMDPVDTATYYCARITTYYYGMDYWGQGTLVTVSS VL: EIVMTQSPDFQSVTPKEKVTITCRASQSIGNHLHWYQQKPDASPKLLIKYASQSISGVPSRFSGSGSGTDFTLTINSLEAEDAATYFCQQSYNWPLTFGQGTKLEIK | recognize rhesus monkey iRhom2 |
| 23-B-04: humanized antibody binding human iRhom2; HCVD SEQ ID NO 25, LCVD SEQ ID NO 29 (antibody, V domains shown, antibody sequences) VH: QVTLRESGPALVKPTQTLTLTCTFSGFSLSTFGMGVGWIRQPPGKALEWLAHIWWDDEKYYNSALKSRLTISKDTSKNQVVLTITNMDPVDTATYYCARISNYGSNYWYFNVWGQGTLVTVSS VL: AIQLTQSPSSLSASVGDRVTITCRASSSVSYMYWYQQKPGKAPKVLIYDTSNLASGVPSRFSGSGSGTDYTLTISSLQPEDFATYYCQQWNAYPLTFGQGTKLEIK | recognize rhesus monkey iRhom2 |
| 42-B-04: humanized antibody binding human iRhom2; HCVD SEQ ID NO 41, LCVD SEQ ID NO 45 (antibody, V domains shown, antibody sequences) VH: QVTLRESGPALVKPTQTLTLTCTFSGFSLSTFGRGVGWIRQPPGKALEWLAHIWWDDEKYYNSALKSRLTISKDTSKNQVVLTITNMDPVDTATYYCARIQNYGSNYWYFDVWGQGTLVTVSS VL: AIQLTQSPSSLSASVGDRVTITCRASSRISYMFWYQQKPGKAPKVLIYDTSNLASGVPSRFSGSGSGTDYTLTISSLQPEDFATYYCQQWNAYPLTFGQGTKLEIK | recognize rhesus monkey iRhom2 |
| 42-B-02: humanized antibody binding human iRhom2; HCVD SEQ ID NO 33, LCVD SEQ ID NO 37 (antibody, V domains shown, antibody sequences) VH: QVTLRESGPALVKPTQTLTLTCTFSGFSLSTFGRGVGWIRQPPGKALEWLAHIWWDDEKYYNSALKSRLTISKDTSKNQVVLTITNMDPVDTATYYCARIQNYGSNYWYFDVWGQGTLVTVSS VL: AIQLTQSPSSLSASVGDRVTITCRASSRISYMFWYQQKPGKAPKVLIYDTSNLASGVPSRFSGSGSGTDYTLTISSLQPEDFATYYCQQWNSYPLTFGQGTKLEIK | recognize rhesus monkey iRhom2 |
